# According to the DeepSol protein solubility set:
# Assay: soluble on expression in E. coli; label from the status in PepcDB or PDB records
row,Sequence,soluble on expression in E. coli
1,MSLQISPETQLFIREHQTDDVRALALQARKYPNVDMPTAITQIAGRQVAAEKIPSWRDTDDIWYPKHLSLEQCSSEVTARYKATLLKGNSLTDLTGGFGIDCAFLAARFKSATYVERQQELCEIAAHNFPILNLNHINVKNEDGVSYLQAMSPVDCIFLDPARRNEHGGKTVAISDCEPDVAELEELLLNKAEQVMVKLSPMLDLSLALKELQHVQEVHIISANNECKELLLILGQASAEEISIHCVNLPTRGAQEEQHFVFTREQEQCSECNYTDTLENYLYEPNASLLKAGAFRSIASAFPVKKLHPNSHLYTSDVLVESFPGRAFHIISQCSLNKKELKESLGDLKKANITVRNFPATVAELRKRIKLSEGGDTYLFASTLNNGQKVLIRCEKAEGHHHHHH,soluble
2,STSSDPQSHNVFVYGSILEPAVAAVILDRTADTVPAVLHGYHRYKLKGLPYPCIVSSDSGKVNGKVITGVSDAELNNFDVIEGNDYERVTVEVVRMDNSEKVKVETYVWVNKDDPRMYGEWDFEEWRVVHAEKFVETFRKMLEWNKNPNGKSMEEAVGSLLSSGD,soluble
3,MSYYHHHHHHLESTSLYKKAGLQALLLEQQDGKTLASVQTLDESRLPEGDVTVDVHWSSLNYKDALAITGKGKIIRNFPMIPGIDFAGTVRTSEDPRFHAGQEVLLTGWGVGENHWGGLAEQARVKGDWLVAMPQGLDARKAMIIGTAGFTAMLCVMALEDAGVRPQDGEIVVTGASGGVGSTAVALLHKLGYQVVAVSGRESTHEYLKSLGASRVLPRDEFAESRPLEKQVWAGAIDTVGDKVLAKVLAQMNYGGCVAACGLAGGFTLPTTVMPFILRNVRLQGVDSVMTPPERRAQAWQRLVADLPESFYTQAAKEISLSEAPNFAEAIINNQIQGRTLVKVN,soluble
4,GMTDQSVRIIEAALRLYMKKPPHEVSIEEIAREAKVSKSLIFYHFESKQKLLEEAVMHAFRKMMEEFNPRSVEEVVDYGIGFIAERREFIEFMMYALSQVRIEELERMFGEALEKVASLFEGCRHPRETAIALMAMLDGLSIYSLYFDLGKLEKYREIAMEFVESRRVRA,soluble
5,MSLAIWAAGDTAGVATVVRTLRSAPRPPGAAMVVAPDGSVSGSVSGGCVEGAVYELAAEVAQTGIPRLEHYGVSDDTAFAVGLTCGGIIDVFVEPVSRATFPELGELADDIGAQRPVAIATVIAHPDERRVGRRLVIRPDTKSPVTGSLGSARADAAVIDDARGLLAVGRSEILEYGPDGQRRGEGMEVFVSSHAPRPRMLVFGAIDFAAALARQGSFLGYRVTVCDARAVFATPARFPTADDVVVAWPHRYLAAQAEAGGIDERTVICVLTHDPKFDVPVLEVALRLGVGYVGAMGSRKTHDDRMDRLRAAGLTDAELSRLSSPIGLDLGARTPEETAVSIAADIIARRWGGGGRPLADIAGRIHHDAQVAGEFKDYLTRHEGHHHHHH,soluble
6,GSMPKPINVRVTTMDAELEFAIQPNTTGKQLFDQVVKTVGLREVWFFGLQYVDSKGYSTWLKLNKKVTQQDVKKENPLQFKFRAKFFPEDVSEELIQEITQRLFFLQVKEAILNDEIYCPPETAVLLASYAVQAKYGDYNKEIHKPGYLANDRLLPQRVLEQHKLTKEQWEERIQNWHEEHRGMLREDSMMEYLKIAQDLEMYGVNYFEIKNKKGTELWLGVDALGLNIYEHDDKLTPKIGFPWSEIRNISFNDKKFVIKPIDKKAPDFVFYAPRLRINKRILALCMGNHELYMRRRKPDTIEVQQMKAQARVDSSGRIVTD,soluble
7,MKVFNRPILFDIVSRGSPDGLEGLLSFLLTHKKRLTDEEFREPSTGKTCLPKALLNLSAGRNDTIPILLDIAEKTGNMREFINSPFRDVYYRGQTALHIAIERRCKHYVELLVEKGADVHAQARGRFFQPKDEGGYFYFGELPLSLAACTNQPHIVHYLTENGHKQADLRRQDSRGNTVLHALVAIADNTRENTKFVTKMYDLLLIKCAKLFPDTNLEALLNNDGLSPLMMAAKTGKIGIFQHIIRREIADAAAHHHHHH,soluble
8,TAQIKGLTQAQRNANDGISLAQTAEGALGEISNNLQRIRELAVQASNGTNTQTDRDALQAEVTQLQSEIQRVAEQTSFNGQKLLDGSFNGVQFQIGANAGETIGVSKIMNAQTASLGGSLTRTTSTIDATDLTKYDTAMAAGDLTINGVDVGKIDAASTAQERAAQLTEAINRVSSQTNVGASYDKTTGQVTLTSNAAIAVAGAANDATVAGWANNATTGTATTTTGINSLTVSSFTNAQQTITQIDNALKDINTARADLGAVQNRFTSTVANLQSMTENLSSALEHHHHHH,soluble
9,MGSDKIHHHHHHMTEIATIEKPAQHGATTRLIDIVFPGDTNHHGTLFGGTGLALMDRVAFIAATRFGRTPFVTASCERIDFRQPARIGHIVEFTARPVKAGRRSLTVEVEMVAETIIGRQQHTCTRGIFHMVAIPEGEDAASYVLPELLTEETPDPSDAVTMVEIVFPDQANSAGRMFGGEAIAYMTKAAFVAASRYCGKLVVLASSERIDFARAIEIGEIVEAQAHVERVGRSSMSIQTKLWSENLLTGERHITATGHFTMVAVDKDHRPATIRDPAEAFSLEKGGA,soluble
10,MGSDKIHHHHHHMDIKQLKFLIALDETRHFGQAAARCNITQPTLSMRLRNLEEELGLPLVNRGQRFEGFTAPGERVLAWARTVLAAYDGLQAEAAACRGHLVGTLRLGVVPMSSFDPLPLLHRLHQLHPNLRFELSSLSSEQVLEQLASNRIDLGVSYLERLDSERFDSLTLDETRMGLLYDRRHFTFGDTPLSWADLVELPLGTLTSGMHFRQSIDHNFHSRGLQPNPLIQTDAVHQLLQAVHGGFCCAIMPLDGGLETLTEHLHLHPIADACTLARLGLIMRRSAPRSALAEACFALVAEIPR,not soluble
11,MTEKLAVFTGKLAEAGVLNETQPLSMRLHLENIQAESDPESIVPLFSHGVILNILVEQLEESIPLSHLKKGTKVRFTVVGLPPMTMSIPPHVGGQAIELIEEI,not soluble
12,MSLKNVLITGANSYIGLSFKNWLAKEPEKYKVDSISLRGDLWKEKDFSQYDVLLHAAGIAHIKETKENKELYFKVNRDVAYEAAKKAKDEGIKQFIFLSSMSVYGKENGIIDLDTLPKPTSNYGESKLQAEKLIEMLDDDSFKVVTIRPPMIYGKGCKGNYPKLAKLARKLPVFPDVENERSMIHIENLCEFMKLIIDNNDAGLFLPQNDDFVKTSEMVRLIGETNGKRIKLTKFFNPVLNLFIGKIGVVNKVFGNLKYKKEISNYKDNYIINNFAESIRRTEEGHHHHHH,soluble
13,KKPLSVFKGPLLHISPAEELYFGSIESGEKKTLIVLTNVTKNIVAFKVRTTAPEKYRVKPSNSSCDPGASIDIIVSPHGGLTVSAQDRFLIMAAEMEQSSGTGPAELSQFWKEVPRNKVMEHRLRCHTVESSKPNSLML,soluble
14,MGSDKIHHHHHHMLVVKDKPKSPISEAYRTLRSNIQFSSFDKDMQLILITSSGPGEGKSTTSCNLALAMAEAGNSVLLLDCDLRKPSVHKKFKISNNIGLSNVLAGQTKFESASHWYNQNLCILTAGKIPPNPAEMLSSKRMKAFLNEAKGVFKYIILDAPPVIAVTDPQILSTMVDGVVLVVSSGVADIEAAKRAKELLENVNANIIGSVLNRVDTESRRGYYGGYYYYYGDEGEKVKKHKDR,not soluble
15,MSLTYEKLYELRQTLRPTTKDGLYTDNEKNREILTVRWSGNTENPKNFSAVAIGINPSKANDERSDKTLTQLARFLDMYGFTNFKMLNIFSSYSTQQTGIRANTQTDFSKFKGCLEDADMIILAWGTDRGAYKDEKNRILEFLKAEKFMEKVFCISETGNSSDTRHPSRISYSYQLVQFEESAEGGSHHHHHH,soluble
16,MAEPKYAIIINDIKRLISDGTFKPGEKIYSEDELKKKYNVSNTTVVRALHELVRAGILARYQGKGTYVSKSIINEEVIFNEYTTVPNGKFNRKTKIANEHTKVVAINEIQDARIAKNLQIPPENMIVHFQRIRLIDDVPWTVQNNYMAKANLINVDLTNFERFNSLSEVIKELYGINILHEAMKERIQVEFPVKDKNNFKLLEIDSELPLYHIERITYVPEGQPYEYIESYLRHNFYSIEIEKKKQ,not soluble
17,MSLGKLSILSKRKYTMKNQIQFSTFNFKDLPVRVILDPKGEFWFCGTDVCHILGYTNSRKALQDHCKQGGVTKRYTPTKSADQEMTFINEPNLYRLIIKSRKPEAEPFEAWVFEEVLPQIRKTGKYQLQPQQLALPEPEKKFSFEFTEYELQQLVWLWFAFMRGIVTFQHIEKAFKALGSNMSGDIYGQAYEYLSVYAQQTKSEGHHHHHH,not soluble
